According to the DeepSol protein solubility set:

Experiment: soluble on expression in E. coli; label from the status in PepcDB or PDB records
With “MSDTPATRDFGLIDGRAVTGYVLSNRRGTRVCVLDLGGIVQEFSVLADGVRENLVVSFDDAASYADNPFQINKQIGRVAGRIRGAAFDINGRTYRVEANEGRNALHGGSHGLAVTRFNAVAADGRSVVLRSRLQQSADGYPNDLDLDISYRLDEDDRLTVSYRATALGDTVFDPTLHIYWRLDAGLHDAVLHIPQGGHMPADAEKLPVSTVSDDLEVFDFSRPKPLDAAVAALRRETGRAGFDDAYRVPSDIGRPAAVLQAGRRRRISIYSDRNGLVIFTAAPQDFARHDAGVYDALATEAQTLPDSLNWPEFGNIRLNKGDTREATIAYGIESLS” the “soluble on expression in E. coli” value was “not soluble”.
In the case of “MSDVTGDLAAVSEAKGGSDAARISEVKAWLTSQFEAVGKEVPNFEYTHRSITHLYNLATASQAKSQAATIVANDFRLKASEYRAQAARIREILESAGMSQESLPSNVVSSAQVLANVANLLNIRDTELSRILAQLEDDVVPCESQMENWKTNLEVMAVKEEQYIQQYKKYEMLLNRVGYTPKISHRELVEMAEHRKELDKMTKPVLDTLRSYQDLPPDKALAALAIEDKKRQFTAAEKYLEEVLQSALETNDE”, the “soluble on expression in E. coli” value is reported as “soluble”.
In the case of “MSEDELIIIENLKKIYKIKNVEFPALRGINLKIYKGEFLGIAGPSGSGKTTLLDMIGLLDSPTEGKIIIDKKDVTKFDEDKRAIFRRKNIGFVFQSYNLISYLTVLENVELALAAAGYPVSKRKAKAEEILSMIPGMLELKNKKPNELSAGQQQRVAIARALANDPKILIADEPTANLDSKTGEAIVELLRKLNEEKGVTIVMATHDPMMMKYVDRLVYIRDGLIEKEVIQK”, the “soluble on expression in E. coli” value is reported as “soluble”.
For “MSEDGLKVSVLASGSTGNVTYIETPERKVLVDAGLSGKKIAGLMDSVGRDISEVDSLFVTHEHSDHIQSVGVLARKYGIDIYANQGTWDAIGGKIGKVPTEQKFIFDPNTTKSLDDLDIESFSVSHDAAEPQFYEFHHAGKSFVILTDTGYVSDRIAGTIRNADGYLFEVNHDTEMLRMGGYPWPLKQRIMGDHGHLSNEDGANALMDVIGNRTKKIYLGHLSLHNNMKELAHLTVTSMMQNHDLAVGHDFEILDTDHKIADPLTLILEHHHHHH”, the “soluble on expression in E. coli” value was “soluble”.
In the case of “MSEFTQDTVQKPIDELVTWVKQYDFSLNLPTERLAFLLAIAVLSNERFDEELGEGELHDAFAIVTRLFAESGEASAFRANNAINDLVKQRLLSRFTSEMTEGASIYRLTPLAIGITDYYVRHREFSKLKLSIQLSMVADEMAKAVESAQQGGSVAHWRKNVFGVLKYSVSEIFDRIDLNQRVMDEQQQSVKEQIADLLNKDWRDAINNCEALLSETSATLRELQDTLQAAGDELQTQILDIQECVYGDLELDFIEETLSALQMKLDRITSWGQQSIDLWIGYDRHVHKFIRTAIDMDQNRAFSQRLRQSMNDYFEQPWYLTYADAERLSDLRDETLTLRDEEVTGHVPTEVEYEELQQVNDELAQRIGDMLKVHKEQGAAIDLALVLRDYLASHPRTHHFDLARMVVDQAVRLGYSESDYRAIQPDWTAINDFGAKVQANVIDRYLEHHHHHH”, the “soluble on expression in E. coli” value is reported as “soluble”.
With “MSEGSNVLVSIILVNYNGADILPDCLNSIDKFISKDNCEILLVDNASQDNSYELVAQDFPDVKIVRLPKNYGFGAGNNAGAKIAKGKFLLLLNTDTILTTNILPHLIDLMRENPDVGIIGTKLVFPDETFQISFAYTIGIKGEYKSRKLHEYAEDKSKLNSLEQEFNTIKEVDIVVGAALFIRADLFHSVGGFDEKFFIYFEDADLCRRVQNQGYKILYTPQVSLIHIRGHSMKKNANATVLEHHHHHH” the “soluble on expression in E. coli” value was “not soluble”.
With “MSEISVTQTLDTLGLRCPEPVMLVRKNIRHLNDGEILLIIADDPATTRDIPSFCQFMDHTLLQCEVEKPPFKYWVKRGK” the “soluble on expression in E. coli” value was “not soluble”.
In the case of “MSEITTLQPSLLWKWFDQICAIPHPSHYEDTLANFIVNWAKEKHFFVERDEVGNVLIRKPATKGMENHTPVVLQAHLDMVPQANEGNPHDFTKDPIQPYIDGEWVKARGTTLGSDNGIGLASTLAVLESNDLAHPPLEVLLTMTEETGMDGAKGLRHNWLQSEILINTDTEEIGEIYIGCAGGINANFEIPVQYETNTFEHSAQITLKGLRGGHSGGDIHTGRANAIKVLARVLAKLSQNQPHFALSEIRGGSIRNAIPREAAAVLAFNGDVKTIESAVENLAVVLKEELAIAEPNFTLFVESAEKAPTVFTAQSTQTVINALNVLPNGVIRNSDVVKNVVESSLSVGVLKTEGNVVKSTILVRSLIESGKYYVTEMLSSLAILANAKVEFSAPYPGWQPVNDSTILDVTRKHYAEVLGEQPVVKVIHAGLECGLLKEHYPNIEMISVGPTIRNAHSPDEKVEIATVQTYWDLLTRVLADIPAK”, the “soluble on expression in E. coli” value is reported as “soluble”.
For “MSELGAKYQQLQNELEEFIVARQKLETQLQENKIVNEEFDQLEEDTPVYKLTGNVLLPVEQSEARTNVDKRLEFIETEITRCEKNIRDKQEELEKMRSELIKLNNTAASTGPGR”, the “soluble on expression in E. coli” value was “soluble”.
